The data set can be described thus: Double-sided release test of fluorescent molecules from electrospun scaffolds in custom-made diffusion chambers. Type of data set: physicochemical. The procedure:
For molecule release characterizations, the circular samples with 24 mm in diameter were cut from PCL-PLGAac and PCL-PLGAes scaffolds loaded with fluorescent dye or fluorescently-labeled albumin. For each experimental condition, 3 samples were used for analyses. Scaffold samples were placed in a custom-made diffusion-test system in which a sample was sandwiched between two reservoir chambers. Each side of the electrospun scaffolds thus faced a different reservoir filled with 1 ml of buffer solution. The reservoirs used SecureSeal hybridization chambers (Grace Biolabs, Bend, Oreg.) which tightly sealed the surface. Each reservoir had small holes for sampling and changing solutions. The holes were covered with silicone sealing tap during experiments to prevent evaporation. Thus, the molecule movements between the reservoirs could only be through the pores of the electrospun materials. The release tests were performed at 37° C. Samples of buffer solutions in both reservoirs were collected every day during the first 16 days, and subsequently once a week for scaffolds loaded with fluorescent albumins. A shorter release experiment was performed in case of electrospun scaffolds loaded with Rh123. After samples were taken, the reservoir chambers were rapidly rinsed with DI water and refilled with fresh phosphate buffer at 37° C. […] The geometry and porosity of the molecule-releasing scaffolds kept constant for all the experimental samples. For the designs with multiple molecules, as various fluorophores could be simultaneously released by the samples, the possibility of the overlap of the fluorophore emission spectra was examined; we could find no overlaps in the interested spectrum ranges. […] For each type of molecule, the efficiency of separation between Side A and Side B, Smolecule—A-B, was defined as the percentage of the molecule released on Side A over the total amount of the molecule released on Sides A and B during the entire experimental duration.
To assess the potential use of PCL-PLGAac and PCL-PLGAes materials for spatially controlled release of active molecules, release experiments were performed using Rh123. PCL and PLGA/Rh123 solutions were electrospun to prepare scaffolds following the pattern described in FIG. 1. Release studies were carried out in custom-made diffusion chambers illustrated in FIG. 7a. The two sealed reservoirs filled with phosphate buffer solution were placed on the opposite sides of the electrospun scaffolds. The PCL side of the scaffold was set to face the buffer reservoir chamber on Side “A”; the Rh123-impregnated PLGA side was placed in contact with the buffer reservoir on Side “B”. […] The separation efficiency of Rh123 between the two surfaces (SRh123—B-A) of the PCL-PLGAac scaffolds was 82±5% during the 9-day release experiment. […] In addition, after day 3, the molecule concentration measured on the PCL side exceeded that on the PLGAes side.

On to “fluorescein isothiocyanate conjugate bovine serum albumin [AlbF]”, for which the “separation efficiency (release of two proteins to one side)” value (PCL-PLGAac composite scaffold, AlbF in inner PLGAac fibers, AlbT in outer PLGAac fibers (FIG. 10a)) amounted to 87±5%. In addition, where the note is “PCL/PLGA scaffold with dual PLGA gradient patterns: AlbF-loaded PLGA in the middle, AlbT-loaded PLGA close to side B (FIG. 11a)”, the “separation efficiency between side B and side A (sequential release scaffold)” value is recorded as 0.92±0.03. Moreover, the “separation efficiency of AlbF between Side A and Side B (SAlbF A-B)” value (PLGAac-PCL-PLGAac composite scaffold, release to opposite sides (FIG. 12)) is on record as 91±4%. Also, the “initial release rate on Side B compared to AlbT” value (dual-protein PCL-PLGAac scaffold, first 10 days, cumulative release normalized to total delivered protein) was “slower rate”. For the same substance, the “day on which daily net release to side B peaked” value (sequential release scaffold (FIG. 11), first 12 days) is 5 days.

For the origin of these results see patent US20140037708A1, “COMPOSITION FOR SPATIO AND/OR TEMPORAL RELEASE OF BIOACTIVE MATERIAL” (The Regents of the University of Colorado, a body corporate, priority 2012, published 2014).
